Data taken from article doi:10.1101/2025.04.08.647717.
One block for each substance: values may come before it.

Tests used:
[1] = target: EaeE37A (EaeSPARDA with E37A in the DREN domain of DREN-APAZ) (Enhydrobacter aerosaccus); assay: SEC-MALS
[2] = target: WT EaeSPARDA (binary DREN-APAZ:Ago monomer) (Enhydrobacter aerosaccus); assay: SEC-MALS
[3] = target: WT XauSPARDA (binary DREN-APAZ:Ago monomer) (Xanthobacter autotrophicus strain Py2); assay: SEC-MALS
[4] = target: XauDREN-APAZ protein (Xanthobacter autotrophicus strain Py2); assay: cryo-EM structure
[5] = target: XauE37A (XauSPARDA with E37A in the DREN domain of DREN-APAZ) (Xanthobacter autotrophicus strain Py2); assay: SEC-MALS
[6] = target: XauHSH (XauSPARDA whose XauAgo carries a 29 aa HSH-tag at the C-terminus) (Xanthobacter autotrophicus strain Py2); assay: SEC-MALS

stoichiometry N [1]: 2
Substance: EaeE37A (EaeSPARDA with E37A in the DREN domain of DREN-APAZ) (complex)

stoichiometry N [2]: 2
Substance: WT EaeSPARDA (binary DREN-APAZ:Ago monomer) (complex)

stoichiometry N [3]: 2
Substance: WT XauSPARDA (binary DREN-APAZ:Ago monomer) (complex)

stoichiometry N [4]: 4
Substance: XauDREN-APAZ protein (natural protein)

stoichiometry N [5]: 2
Substance: XauE37A (XauSPARDA with E37A in the DREN domain of DREN-APAZ) (complex)

stoichiometry N [6]: 2
Substance: XauHSH (XauSPARDA whose XauAgo carries a 29 aa HSH-tag at the C-terminus) (complex)
